Assay results: patent US20250270341A1 (Alector, published 2025)

T1: Full length mouse CD98hc on CHO cells (mouse, UniProt P10852 1-526)
T1 construct: CHO cells stably overexpressing it; also called CHO-mouse CD98hc; CHO-mCD98hc
T1 sequence: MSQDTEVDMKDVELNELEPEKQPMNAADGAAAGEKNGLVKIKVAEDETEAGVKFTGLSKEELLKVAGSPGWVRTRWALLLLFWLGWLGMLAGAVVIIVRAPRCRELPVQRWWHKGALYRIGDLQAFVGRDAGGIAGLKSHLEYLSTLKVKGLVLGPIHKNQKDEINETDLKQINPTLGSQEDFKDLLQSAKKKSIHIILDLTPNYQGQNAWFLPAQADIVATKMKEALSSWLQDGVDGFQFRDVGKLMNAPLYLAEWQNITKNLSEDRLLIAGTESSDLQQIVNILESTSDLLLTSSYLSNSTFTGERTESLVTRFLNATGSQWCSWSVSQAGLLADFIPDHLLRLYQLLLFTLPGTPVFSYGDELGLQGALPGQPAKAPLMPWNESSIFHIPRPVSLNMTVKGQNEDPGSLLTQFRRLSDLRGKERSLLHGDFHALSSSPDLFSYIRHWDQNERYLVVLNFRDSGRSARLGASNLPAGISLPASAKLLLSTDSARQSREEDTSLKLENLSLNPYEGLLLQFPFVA

T2: Full length human CD98hc on CHO cells (human)
T2 construct: CHO cells stably overexpressing it; also called CHO-human CD98hc; CHO-huCD98hc
T2 chain: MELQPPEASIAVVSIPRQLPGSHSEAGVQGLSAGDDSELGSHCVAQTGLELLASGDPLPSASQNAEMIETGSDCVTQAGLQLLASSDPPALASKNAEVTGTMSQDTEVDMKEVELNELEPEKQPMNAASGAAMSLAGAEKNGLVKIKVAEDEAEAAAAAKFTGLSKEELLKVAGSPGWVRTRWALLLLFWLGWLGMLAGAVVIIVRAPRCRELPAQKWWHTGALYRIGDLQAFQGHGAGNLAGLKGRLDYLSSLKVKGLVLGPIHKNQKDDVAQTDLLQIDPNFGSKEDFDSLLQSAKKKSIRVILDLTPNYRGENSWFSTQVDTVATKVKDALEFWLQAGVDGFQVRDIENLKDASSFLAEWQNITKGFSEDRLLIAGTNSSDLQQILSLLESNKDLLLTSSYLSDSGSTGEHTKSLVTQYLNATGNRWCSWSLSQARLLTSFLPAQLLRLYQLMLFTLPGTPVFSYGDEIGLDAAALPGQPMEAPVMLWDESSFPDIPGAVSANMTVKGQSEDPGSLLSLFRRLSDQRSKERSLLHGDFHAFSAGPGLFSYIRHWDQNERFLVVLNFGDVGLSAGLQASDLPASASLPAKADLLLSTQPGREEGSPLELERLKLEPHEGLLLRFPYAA

T3: human CD98hc endogenously expressed on HCMEC/D3 cells (human)
T3 construct: human brain endothelial cell line
T3 chain: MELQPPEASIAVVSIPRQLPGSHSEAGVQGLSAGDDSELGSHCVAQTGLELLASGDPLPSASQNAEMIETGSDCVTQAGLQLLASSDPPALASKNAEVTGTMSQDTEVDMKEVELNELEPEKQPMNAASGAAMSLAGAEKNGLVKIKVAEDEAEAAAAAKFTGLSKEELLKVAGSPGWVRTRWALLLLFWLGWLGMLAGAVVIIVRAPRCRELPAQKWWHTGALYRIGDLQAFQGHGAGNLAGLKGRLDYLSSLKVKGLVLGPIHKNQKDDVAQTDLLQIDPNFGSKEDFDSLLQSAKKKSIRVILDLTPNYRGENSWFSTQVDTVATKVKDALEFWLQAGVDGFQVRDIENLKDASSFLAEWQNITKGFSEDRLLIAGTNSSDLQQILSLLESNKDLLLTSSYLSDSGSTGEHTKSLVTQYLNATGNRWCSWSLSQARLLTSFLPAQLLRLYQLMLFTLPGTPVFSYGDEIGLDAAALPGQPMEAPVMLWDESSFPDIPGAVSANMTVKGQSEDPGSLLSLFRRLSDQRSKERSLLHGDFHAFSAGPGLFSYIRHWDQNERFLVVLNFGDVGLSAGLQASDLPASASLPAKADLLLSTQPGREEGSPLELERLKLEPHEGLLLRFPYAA


Experiments:
Experiment in all cases: FACS, hybridoma supernatant
[1] = target: T1, Full length mouse CD98hc on CHO cells
[2] = target: T2, Full length human CD98hc on CHO cells
[3] = target: T3, human CD98hc endogenously expressed on …
[4] = target: T1, Full length mouse CD98hc on CHO cells; remark: listed apart in the source
From the text: The IgG positive hybridoma supernatants (898 in total) were initially screened for their ability to differentially bind CHO cells overexpressing human or mouse CD98hc cells compared to CHO parental cells by FACS. Overexpressing cells were harvested, washed, and labeled with various concentrations and combinations of CellTrace cell proliferation dyes CFSE and Violet (ThermoFisher, Cat #C34554 and Cat #34557, respectively) to create uniquely barcoded cell populations. Barcoded cells (5×10⁴ of each cell population) were aliquoted into 96-well U-bottom plates and incubated with 50 μl of hybridoma cell culture supernatant or 1 μg/ml of commercially available purified mouse anti-human CD98hc monoclonal antibody (Sigma Aldrich, Cat #SAB 4700503) and rat anti-mouse CD98hc antibody (Bio-Rad Laboratories, Hercules, CA, Cat #MCA2684) on ice for 30 minutes. […] Following this secondary antibody incubation, the cells were again washed twice with ice-cold FACS buffer and resuspended in a final volume of 50 μl of FACS buffer containing 0.25 μl/well propidium iodide (BD Biosciences, Cat #556463). Binding intensity on cells was analyzed using the FACS Canto system (BD Biosciences), with sorting gates drawn to exclude dead (i.e., propidium iodide-positive) cells. For each barcoded cell population, the ratio of APC Mean Fluorescence Intensity (MFI) divided by secondary antibody MFI was calculated for each anti-CD98hc hybridoma supernatant tested and reported in Table 5.

| Binder | MFI ratio over secondary antibody [1] | MFI ratio over secondary antibody [2] | MFI ratio over secondary antibody [3] | binding result [4] |
| --- | --- | --- | --- | --- |
| CD98HC.03.031 (antibody, V domains shown, hybridoma IgG) VH: QVQLQQSGAELVRPGVSVKISCKASGYTFTDYAMHWVKQSHAKSLEWIGVISTYYGDTTYNQKFKDKATMTVDKSSSTAYLELARLTSEDSAIYYCARVWLLSYAMDNWGQGTSVTVSS VL: DIVMTQSQRFMSTSVGDGVRITCKASQNVRTAVAWYQQKPGQSPKALINLAPNRHTGVPDRFTARGSGTDFTLTISNVQSEDLADYFCLQHWNYPLTFGAGTKLELK | 1.2 | 38.9 | 198 | no binding |
| CD98HC.04.010 (antibody, V domains shown, hybridoma IgG) VH: QVQLQQSGAELMKPGASVKISCKATGYTFSTYWIEWVKQRPGHGLEWIGEILPGSGTTTYNEKFKGKATFTADTSSNTAYMQLSSLTSEDSAVYYCARRTVYYRYEGIDYWGQGTTLTVSS VL: QIVLTQSPAIMSASPGEKVTITCSASSSVSYMFWFQQRPGTSPKLWIYTTSNLASGVPARFSGSGSGTSYSLTISRMEAEDAATYYCQQKNNYPFTFGSGTKLEIK | 1.1 | 26.5 | 151 | no binding |
| CD98HC.04.013 (antibody, V domains shown, hybridoma IgG) VH: EVQLVESGGDLGMPGGSLKLSCAASGFALSGYDMSWVRQTPDKRLEWVAYLSSGGGSTYYPYTVKGRFTISRDNAQNTLYLQMSSLKSEDTAIYYCARHSEVRPWFGYWGQGTLVTVSA VL: DIVMSQSPSSLAVSVGEKVTLTCKSSQSLLYSGNQKNYLAWYQQNPGQSPKLLIYWASTRESGVPDRFTGSGSGTDFTLTISSVKAEDLAVYYCQQYYTYPPTFGAGTKLGLK | 1.1 | 21.2 | 124 | no binding |
| CD98HC.04.018 (antibody, V domains shown, hybridoma IgG) VH: QIQLVQSGPELKKPGETVKISCKASGYTFRNYGMNWVKQAPGKGLKWMGWINTYTGEPTYAEDFKGRFAFSLETSASTAYLQINKLKNEDEATYFCARGEAHWYFDVWGAGTTVTVSS VL: QIVLTQSPAIMSASLGERVTMTCTASSSVSSSYLYWYQQKPGSSPKLWIYSIFNLASGVPARFSGSGSGTSYSLTISSMEAEDAATYYCHQYHRSPPTFGGGTKLEIK | 1.1 | 50.3 | 335 | no binding |
| CD98HC.03.002 (antibody, V domains shown, hybridoma IgG) VH: DVQLVESGGGLVQPGGSRKLSCAASGFTFSTFGMHWVRQAPEKGLEWVAYISGGSTNIYYADTVKGRFTISRDNPKNTLFLQMTSLRSEDTAMYYCARETTLLATNFDYWGQGTTLTVSS VL: DIQMTQTTSSLSASLGDRVTISCRASQDISNYLNWYQQKPDGTVKLLIYYTSRLHSGVPSRFSGSGSGTDYSLTISNLEQEDIATYFCQQGSTLPRTFGGGTKLEIK | 1 | 28.5 | 233 | no binding |
| CD98HC.04.003 (antibody, V domains shown, hybridoma IgG) VH: QVQLQQSGAELAKPGASLKMSCKASGYTFTDYYIHWVKQRPGQDLEWIGYINPNSAYTDSNQKFKDKATLTADKSSNTAYMQLSSLTSEDSAVYYCARKGHFYAPSFAYWGQGTLVTVSA VL: DIQMTQTTSSLSASLGDRVTISCRASQDISNYLNWYQQKPDGTVKLLIYYTSRLHSGVPSRFSGSGSGADYSLTISNLQQEDIATYFCQQGDTLPYTFGGGTKLEIE | 1.1 | 3.2 | 13.8 | no binding |
| CD98HC.04.006 (antibody, V domains shown, hybridoma IgG) VH: EVNLVESGGDLVQPGGSLRLSCATSGFTFTDYFMSWVRQPPGKALEWLGFIRNKAYGYTTEYSASVKGRFTISRDNSQSIFYLQMNTLRLEDSATYYCARGPFISTAPFAYWGQGTLVTVSA VL: DIVMSQSPSSLAVSVGETVTMSCKSSQSLLYSSNQKNYLAWYQQKPGQSPKLLIYWGSTRESGVPDRFTGSGSGTDFTLTISSVKAEDLAVYYCQHYYGYPWTFGGGTKLEIK | 1.1 | 39 | 197 | no binding |
| CD98HC.04.012 (antibody, V domains shown, hybridoma IgG) VH: QVQLQQSGADLVRPGDSVKISCKGSGYTFTDNTLHWVKQSHAKSLEWIGVISPYYGDASYNQKFKGKATMTVDKSSSTAYMELARLTSEDSAIYYCARVGGRLRLGYYFDHWGQGTTLTVSS VL: NIMMTQSPSSLAVSAGEKVTMNCKSSQSVLSSSNQKNYLAWYQQKPGQSPKLLIYWASTRESGVPARFTGSGSGTDFSLTITSVQAEDLAVYYCLQYLSSYTFGGGTKLEIK | 1.1 | 28.3 | 155 | no binding |
| CD98HC.04.011 (antibody, V domains shown, hybridoma IgG) VH: DVQLQESGPDLVKPSQSLSLTCSVTVYSFTSVYSWHWIRQFPGNKLEWMGYIHDSGTTNYNPSLKSRISVTRDTSKNQFFLQLNSVTTEDTATYYCARGRPYGYDGFAYWGQGTLVTVSA VL: DIQMTQSSSYLSVSLGDRVTITCKASDHINNWLAWYQQKPGNAPRLLITGAVNLETGVPSRFSGSGSGKDYTLSITSLQTEDVATYYCQQYWSIPRTFGGGTNLEIK | 1.1 | 31 | 192 | no binding |
| CD98HC.04.009 (antibody, V domains shown, hybridoma IgG) VH: QVQLKESGPGLVAPSQSLSITCTVSGFSLTSYGVHWVRQPPGKGLEWLGVIWAGGSTYYNSALMSRLSISKDNAKSQVLLKMSSLQTDDTAMYYCARDNYGGVYLDVWGAGTTVTVSS VL: ENVLTQSPASMSASPGEKVTMTCRASSSVSSSYLHWYQQKSGASPKLWIYSTSNLASGVPARFSGSGSGTSYSLTISSVEAEDAATYYCQQYSGYPLTFGSGTKLEIK | 1.1 | 18.5 | 131 | no binding |
| CD98HC.04.022 (antibody, V domains shown, hybridoma IgG) VH: EVQLQQSGAELVKPGASVKLSCTASGFNIKDTFMHWMKQRPEQGLEWIGRIDPANANTRYDPKFQGKATITTDTSSNTAYLQLSSLTSEDTAVYYCARDVYYDVWGAGTTVTVSS VL: DILMTQSPSSMSVSLGDTVTITCHASQGISSNIGWLQQKPGRSFKGLIYHGSNLEDGVPSRFTGSGSGTDYSLTISGLESEDFADYYCVQYAQFPRTFGGGTKLEIQ | 1.1 | 16.6 | 102 | no binding |
